Three variants from IntAct's records for PubMed 28587924 can be followed below.

B1: Argininosuccinate synthase (Homo sapiens), P00966 (parent)
chain: MSSKGSVVLAYSGGLDTSCILVWLKEQGYDVIAYLANIGQKEDFEEARKKALKLGAKKVFIEDVSREFVEEFIWPAIQSSALYEDRYLLGTSLARPCIARKQVEIAQREGAKYVSHGATGKGNDQVRFELSCYSLAPQIKVIAPWRMPEFYNRFKGRNDLMEYAKQHGIPIPVTPKNPWSMDENLMHISYEAGILENPKNQAPPGLYTKTQDPAKAPNTPDILEIEFKKGVPVKVTNVKDGTTHQTSLELFMYLNEVAGKHGVGRIDIVENRFIGMKSRGIYETPAGTILYHAHLDIEAFTMDREVRKIKQGLGLKFAELVYTGFWHSPECEFVRHCIAKSQERVEGKVQVSVLKGQVYILGRESPLSLYNEELVSMNVQGDYEPTDATGFININSLRLKEYHRLQSKVTAK
partner: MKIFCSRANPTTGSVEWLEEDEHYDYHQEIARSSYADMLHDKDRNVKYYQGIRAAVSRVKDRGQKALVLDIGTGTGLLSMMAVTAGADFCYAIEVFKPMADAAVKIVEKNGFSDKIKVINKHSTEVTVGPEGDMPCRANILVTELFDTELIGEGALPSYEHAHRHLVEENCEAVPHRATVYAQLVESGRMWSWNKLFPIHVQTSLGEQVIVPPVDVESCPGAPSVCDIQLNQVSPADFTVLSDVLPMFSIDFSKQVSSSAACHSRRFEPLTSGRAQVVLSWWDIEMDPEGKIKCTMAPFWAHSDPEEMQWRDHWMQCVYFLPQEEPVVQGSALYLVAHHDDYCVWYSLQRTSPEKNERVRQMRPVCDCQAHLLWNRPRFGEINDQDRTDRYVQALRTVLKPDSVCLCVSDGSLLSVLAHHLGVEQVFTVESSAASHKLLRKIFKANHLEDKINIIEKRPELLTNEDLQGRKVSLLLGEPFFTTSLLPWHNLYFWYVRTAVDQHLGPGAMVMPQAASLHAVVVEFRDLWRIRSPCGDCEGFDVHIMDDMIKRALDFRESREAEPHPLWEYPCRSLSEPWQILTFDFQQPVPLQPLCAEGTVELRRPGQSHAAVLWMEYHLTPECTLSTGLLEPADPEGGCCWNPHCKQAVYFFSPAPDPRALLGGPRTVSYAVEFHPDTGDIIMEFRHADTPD

Variants of B1 are the subject of test [1]. To be noted: with anm7_human PRMT7, Q9NVM4.
Test [2] covers variants of B1. The conditions noted are these: with anm7_human PRMT7, Q9NVM4. The source holds these as a separate data set.

As for MSSKGSVVLAYSGGLDTSCILVWLKEQGYDVIAYLANIGQKEDFEEARKKALKLGAKKVFIEDVSREFVEEFIWPAIQSSALYEDRYLLGTSLARPCIARKQVEIAQREGAKYVSHGATGKGNDQVRFELSCYSLAPQIKVIAPWRMPEFYNRFKGRNDLMEYAKQHGIPIPVTPKNPWSMDENLMHISYEAGILENPKNQAPPGLYTKTQDPAKAPNTPDILEIEFKKGVPVKVTNVKDGTTHQTSLELFMYLNEVAGKHGVGRIDIVENRFIGMKSRGIYETPAGTILYHAHLDIEAFTMDREVRKIKQGLGLKFAELVYTGFWHSPECEFVRHCIAKSQERVEGKVQVSVLKGQVYALGRESPLSLYNEELVSMNVQGDYEPTDATGFININSLRLKEYHRLQSKVTAK [I360A], the “effect of a mutation on the interaction” value in test [1] is reported as “decreasing interaction strength”. For MSSKGSVVLAYSGGLDTSCILVWLKEQGYDVIAYLANIGQKEDFEEARKKALKLGAKKVFIEDVSREFVEEFIWPAIQSSALYEDRYLLGTSLARPCIARKQVEIAQREGAKYVSHGATGKGNDQVRFELSCYSLAPQIKVIAPWRMPEFYNRFKGRNDLMEYAKQHGIPIPVTPKNPWSMDENLMHISYEAGILENPKNQAPPGLYTKTQDPAKAPNTPDILEIEFKKGVPVKVTNVKDGTTHQTSLELFMYLNEVAGKHGVGRIDIVENRFIGMKSRGIYETPAGTILYHAHLGIEAFTMDREVRKIKQGLGLKFAELVYTGFWHSPECEFVRHCIAKSQERVEGKVQVSVLKGQVYILGRESPLSLYNEELVSMNVQGDYEPTDATGFININSLRLKEYHRLQSKVTAK [D296G], the results for the “effect of a mutation on the interaction” value in test [1] and in test [2] were “disrupting interaction strength” and “decreasing interaction strength”, respectively. For the variant MSSKGSVVLAYSGGLDTSCILVWLKEQGYDVIAYLANIGQKEDFEEARKKALKLGAKKVFIEDVSREFVEEFIWPAIQSSALYEDRYLLGTSLARPCIARKQVEIAQREGAKYVSHGATGKGNDQVRFELSCYSLAPQIKVIAPWRMPEFYNRFKGRNDLMEYAKQHGIPIPVTPKNPWSMDENLMHISYEAGILENPKNQAPPGLYTKTQDPAKAPNTPDILEIEFKKGVPVKVTNVKDGTTHQTSLELFMYLNEVAGKHGVGRIDIVENRFIGMKSRGIYETPAGTILYHAHLDIEAFTMDREVRKIKQGLGLKFAELVYTGFWHSPECEFVRHCIAKSQERVEGKVQVSVLKGQVYILGLESPLSLYNEELVSMNVQGDYEPTDATGFININSLRLKEYHRLQSKVTAK [R363L], the “effect of a mutation on the interaction” value is on record as “disrupting interaction strength” in test [1] and “decreasing interaction strength” in test [2].
